Measurements: paper PMC12835398
Where no end group is shown, it is not given here.

Experiments:
[1] = target: coagulation factor II thrombin receptor/protease activated receptor 1 (F2R/PAR1) (human (endogenous in ES-2)) (UniProt P25116)
[2] = target: coagulation factor II thrombin receptor/protease activated receptor 1 (F2R/PAR1) (human (endogenous in ES-2)) (UniProt P25116); remark: listed apart in the source

Chain of UniProt P25116 (P25116 42-425): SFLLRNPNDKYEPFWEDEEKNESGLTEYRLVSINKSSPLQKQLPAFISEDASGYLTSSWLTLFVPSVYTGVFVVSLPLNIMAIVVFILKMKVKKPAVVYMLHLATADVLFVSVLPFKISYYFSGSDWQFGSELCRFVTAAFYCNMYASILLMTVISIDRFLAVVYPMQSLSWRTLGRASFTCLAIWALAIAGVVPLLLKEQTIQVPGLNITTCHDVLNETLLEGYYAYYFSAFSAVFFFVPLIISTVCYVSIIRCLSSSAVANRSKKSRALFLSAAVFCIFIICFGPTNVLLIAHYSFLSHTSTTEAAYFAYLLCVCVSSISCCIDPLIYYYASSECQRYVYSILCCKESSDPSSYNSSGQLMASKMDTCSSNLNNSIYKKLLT

B1: … conjugated to DSPE-PEG-maleimide, on doxorubicin-loaded lipid nanoparticles (LNP-Peptide-DOX) (peptide)
peptide: TFLLRGSGSGSC(DSPE‑PEG2000‑maleimide)
modifications: also: on doxorubicin-loaded lipid nanoparticles
cytotoxicity on ES-2 cells, MTT assay, 24 h; IC50 as DOX concentration; LNP-DOX without peptide 10.16 µM, free DOX 0.6 µM [1]: 1260 nM | cellular uptake: DOX fluorescence (MFI per cell) of ES-2 cells by flow cytometry after 1 h at 37 °C, about 86 µM drug; LNP-DOX without peptide approximately 2000 [2]: 6000 MFI
